Experimental data reported in publication PMC8158043 (mAbs, 2021).

Biological target: SARS-CoV-2 RBD (residues 319–541) (SARS-CoV-2, UniProt P0DTC2)
Assay: BLI

B1: CR3014 parental (human IgG1) (antibody, V domains shown)
VH: EVQLVESGGGLVQPGGSLRLSCAASGFTFSDHYMDWVRQAPGKGLEWVGRTRNKANSYTTEYAASVKGRFTISRDDSKNSLYLQMNSLKTEDTAVYYCARGISPFYFDYWGQGTLVTVSS
VL: not shown
**Q.** Does B1 bind?
**A.** no binding
